B1: Peroxiredoxin 3 (Prx3) (natural protein, UniProt P30048 62-256, looked up)
chain: APAVTQHAPYFKGTAVVNGEFKDLSLDDFKGKYLVLFFYPLDFTFVCPTEIVAFSDKANEFHDVNCEVVAVSVDSHFSHLAWINTPRKNGGLGHMNIALLSDLTKQISRDYGVLLEGSGLALRGLFIIDPNGVIKHLSVNDLPVGRSVEETLRLVKAFQYVETHGEVCPANWTPDSPTIKPSPAASKEYFQKVNQ
modifications: inter-subunit disulfide (oxidized dimer); reduced thiols alkylated with NEM before lysis
B2: Peroxiredoxin 2 (Prx2) (natural protein, UniProt P32119 1-198, looked up)
chain: MASGNARIGKPAPDFKATAVVDGAFKEVKLSDYKGKYVVLFFYPLDFTFVCPTEIIAFSNRAEDFRKLGCEVLGVSVDSQFTHLAWINTPRKEGGLGPLNIPLLADVTRRLSEDYGVLKTDEGIAYRGLFIIDGKGVLRQITVNDLPVGRSVDEALRLVQAFQYTDEHGEVCPAGWKPGSDTIKPNVDDSKEYFSKHN
modifications: inter-subunit disulfide (oxidized dimer); reduced thiols alkylated with NEM before lysis
B3: Peroxiredoxin 1 (Prx1) (natural protein, UniProt Q06830 1-199, looked up)
chain: MSSGNAKIGHPAPNFKATAVMPDGQFKDISLSDYKGKYVVFFFYPLDFTFVCPTEIIAFSDRAEEFKKLNCQVIGASVDSHFCHLAWVNTPKKQGGLGPMNIPLVSDPKRTIAQDYGVLKADEGISFRGLFIIDDKGILRQITVNDLPVGRSVDETLRLVQAFQFTDKHGEVCPAGWKPGSDTIKPDVQKSKEYFSKQK
modifications: inter-subunit disulfide (oxidized dimer); reduced thiols alkylated with NEM before lysis

Biological target: the molecule itself
Assay: non-reducing SDS-PAGE immunoblot

Stoichiometry N, 2:
B1, B2, B3
